Reference: a protein production outcome set (Wang et al. 2014)

test: label from the status in PepcDB records

Row | Sequence | protein production
1 | MLRGLRIIAENKIGVLRDLTTIIAEEGGNITFAQTFLIKHGEHEGKALIYFEIEGGDFEKILERVKTFDYIIEIEEEESFERVFGKRVIILGGGALVSQVAIGAISEADRHNLRGERISVDTMPVVGEEEIAEAVKAVSRLHRAEVLVLAGGIMGGKITEEVKKLRKSGIRVISLSMFGSVPDVADVVISDPVMAGTLAVMHISEKAKFDLDRVKGRRI | not failed
2 | MLRIFSAKNEVDSKYIFMLAFMLALFSSGVPPEIVILHLSREDSFEPYTKVFKKIRNLVSGYRYKFSSAITYSIKNLNIRFLKEFLIRLSQAVTFGDDMIEFLSREIDFTLSEYNAYSARLIESMNNFLTIYATLNSSLTFLVADITILSLIYSGGTTLIIQLTILSLALLGNLTLVMYLLYRPENYIRYNVIDKFVLTFTISLSIIFSVIYTSYIVLMGTGIVLLGIGLRYRLYENKINRIERHFLLFIRYFSRNYAIVSNLKESLMAVLRGDLGDVRPLIRRSLNRLNFGIDKEKIFRLIGDESGSILVSMLSKVLYETISMGGNAMIIGEILSKIGDSVLNIRSRKEQNGRAFETSIYALQTASAGVSAALISIVGMLNNIFSTQNVSTVFSFSEVNIDIISRIFLIILLILSFANGIAITLAYGKSLYVSLYFIGILIILSSISYHIVLILTGNIFKELASPSGLLQTT | failed
3 | MLRLVKKSVIGLVDWFLYKALKTSQKQFLSSLLTEKQKQAIKRVIKPGKKQTQLRKIERLKYRLYNLGFTNRALEDLQLICRESGEPYLKRLAAWELALWHANQYTTEDAKACLRYLDIATTGVKDRDDLRAVAIVKAECYDLLGEREQGKELVQQMIETQPHPDLYLAAANLETTVAQRMKWINKVFAHYGTEPLELTEQADEKSPYDALGVNGIDESSENDEQPKVTVIIPAFNAESVIQTSIESMQKQTWTNLEIFVVDDCSTDETASIVHQYAEQDHRVHYLKTETNSGAYVARNIALQHATGDFVTINDADDWSHSRKIEIQVRHLLKHPNIIGNFSQQVRATNDLKFYRRGKPGLYIFANMSSFMFRRKPAMDKLGYWDCVRFAGDSEFVKRIKLAFGEKAVVELPTAPLSFQRQSGESLTSHSAFGFPGYFMGARREYAEAHDHFHRTSQEGLRYSFPQKERPFPVPEPMLPNRQPKSAGRRHFDVILASEFRLLGGTNMSNVEEIKAQREMGLRTGLIQLSRYDLNSVEAINPNVRELIDGDQVQMIVYGEQVSCDVLIVRHPPILQEWQRYVPNVEAKSVHVIVNQPPQRDYGDNGSVLYELPRCIDHLQAYFGKKGIWYPIGPNVREALYEHHHKDLQAIPFSDQDWVNIINVKEWKRVTRREKDGKIKIGRHSRDQYVKWPKDRATMLQIYPDKEPFEVHILGGAKSPTKVLGSLPANWHVREFGEVHPREFLAELDVFVYFTHPDWVEAFGRVVFEAMAAGVPVIVPHEYEKLFGEAAIYAEITEVQEKVMKLMADDKYYQSQVEKALIYVENQFGYSQHAARLETFLHEDERAEV | failed
4 | MLRVIVESASNIPKTKFGKPDPIVSVIFKDEKKKTKKVDNELNPVWNEILEFDLRGIPLDFSSSLGIIVKDFETIGQNKLIGTATVALKDLTGDQSRSLPYKLISLLNEKGQDTGATIDLVIGYDPP | not failed
5 | MLRYLALSEAGIAKLPRPQSRCYHSEKGVWGYKPIAQREFQVAEDVRASRNSQANVYRFVEAFRQHGHKLAAVNPISIRTSQQELQELSPAFYGLQTQEPVRTDGLLSGPQVAHNVAQLEQLLKDIYCGRSTSAEFSYVEDIEEREWLARNFETLDQQQLGKSERCEIAELLIKSQAWDNFMALKFPTVKRYGGEGAESMLAFFWQLLRDSVQANIEHVVLAMPHRGRTPLQAALLNMRPAKVFRKLSGASEFSEDIEAMSDVISHFHVSEQLKILGKKLSFSMVRNPSHLEAANPVAMGKTRSKQQARGEGAFGDGSQPFGEHVLNVILHGDAAFAGQGINQECLNMAYVPHFEVGGSLHLIVNNQVGFTTPGDRGRSTAYTSDLAKSIQAPVFHVNGDDPEALARVTSLAFRYQREFRKDIFIDLNCFRRWGHNELDDPTFTNPLVYKIVHQRESVPDLYAQQLAKEQVLSESKAKEMRDEYMKYLGEELALAPAYQPPPSYFEKQWTNFQLAPSKELTYWDTGLDYSLLHYIGQQSVTFPEDFNIHPHLLKTHVNARLKKLENGVKIDWSTAEALAIGSLMYQGHNVRISGEDVGRGTFSHRHAMLVDQQTNEMFIPLNSMEGGNGGKLELAHSILSEEAVLGFEYGMAIDNPNNLIIWEAQFGDFANGAQIIIDTFIVSGETKWMESNALVMLLPHGYDGAASEHSSCRIERFLQLCDSKETSADGDSVNVHIVNPTTPAQYYHVLRRQLARNFRKPLVVVAPKTLLRLPAATSTHEDFQPGTLFHNVLGDTIAKPEQVRKVILCSGKHYYTLAEEREKRQAYDTAILRLESLCPFPIQELQAQLAQYGNVQSFVWSQEEHRNMGAWTFVRPRFENLIGQQLHYCGRCEAPTPATGIGKVHKREVDEIVAAPFEL | failed
6 | MLSALIWGPIFGAILIAIIPNPDHDCYSRKIALGIMVAMAGLSVLLAGQFNISDPQMQFVEYYPWLPSLGLNYHLGVDGLSLPLLLLNSALVVIAIFSTNTEIERPRFYYALLLLLSGGVAGAFLAQDLLLFFLFFELEIIPLYFLIAIWGGQRRGYAAMKFLLYTALSGFLVLVSFLGWFWLTKAPNFDYNPSLADALPVKTQMLLLLPLLLGLGIKIPIFPFHTWLPDAHVEASTPVSVLLAGVLLKLGTYGLLRFGLGLYLEAWVEFAPYLATLAAISALYGASCAIAQKDMKKVVAYSSIAHMGYILLAAAAATRLSVTAASAQMVSHGIISALLFLLVGVVYKKTGSRDVDKLQGLLTPERGLPITGSLMILGVMASAGIPGMVGFIAEFLVFRGSFPIFPTQTLLCLIGSGLTAVYFLLMINRVFFGRLTMELSHLPKVRWQEQIPAIALAVVIIALGIQPHWLTQWSEPQTAVLLTGHPDLVSVPAPPRIEIEVKELGEV | failed
7 | MLSATSLKIIFAVSIFIVILIAGWYPFKKRLKDDKHIDFPIGETLATGVFLGAALLHMLPESNTLFKEMGYNYPFAFIITGVVFLIFLWFEHLGKELYHHHDAEHPAFAILAWAMLSVHSLMLGAALGFTQYNSMIIMLFLAIITHKWAESLAIAIQLNKSSMSTRKSMVFFFFFSLMTPLGIYFGWYFGHGVETNSLFDPILIAASAGTFLYLGTLHGLERCVMVERCCNLSDFSFVIIGFLLMASVAIYV | failed
8 | MLSGKKTILVFSMLFATFSSHADNFPKLNQALPSGIDARAIAPVFDFDTDGCLPSAGVSRSGVQNGGLKPSGNITGGCRWSNFLDSSNTLHRYACVNSAGSRYCGSFYALYFLKDQILNGVNSGHRHDWEHVAIWTKNGVVTHGSYSAHGKLTTKEASSIDKQDGHLKFSYHKDGPLTHAFRFSKTNEQAENPYGKFVTPDLISWYLMFGDGINNQELRNLLNAFDYGSASIPLKDGNFLTNLNNGRPAGYPEFTDASITVSK | failed
9 | MLSHMDGGTAGARVREVGWLAATLTALLLALLLEHYVIHEQMILPWIAVSPEVPPWMLGAQVVPEIIVCFLFGWRLRGLGWIVIYGAAAAALRQSFYALLTRIGASGHPETLFGPPSEFARTAPLVAVMYFMAFGLASMGAREPGPLPGARSRP | failed
10 | MLSIIIPVYNEKGNILELTSRIKSALKNNEYEIVFVDDSTDETPKIIESLALKYNNIRLKHRKGKKGLSSAVIDGFKLARGDVLSVMDGDLQHPPEMLESMLFQMKKDTDIVICSRFVLGGKEEGLNIFRKFASFIARLIGKIFLKPLRKISDPTAGFFMLKRKVIKNRDLRAIGWKILIEILVMGDYKRVVELPYSFKRRKHEKSKFTISVQGQYLKQIVSLFIRSKKYNIKLEHHHHHH | not failed
11 | MLSIIVPSYNRKAEVPALLESLTQQTSSNFEVIIVDDCSKERVVVEQSYSFPVTVIRNETNQGAAESRNVGARTSKGDWLLFLDDDDCFMPEKCEKVLQVIEQNPNINFIYHPAKCEMVNEGFTYVTQPIEPQEISTERILLANKIGGMPMIAIKKEMFLKIGGLSTALRSLEDYDFLLKLLQEPSFTPYKINEPLTYCTFHTKRSSVSTDTTNTQKAIDYIREHYVKTVEQARNFDINASYILAYPHIMNLSRKAAKYYFDIFKKTKSIKQFIITLVILISPKLAINLKRLGK | failed
12 | MLSIMTFREFMKENGYEVKTKFWEDFSLAERFGLSAIQDTFNRAFKEWKEDYEFLTELVLVLNHKIWQYHEKRPEFAELYNTLEEQTDQYAMENLKDEELSYFFDVTDLEHHHHHH | not failed
13 | MLSKIRPKVKQPLERIGKTLASLGITPNQLTIIGFLITLLASYEFYLQNQILAGIILAVGAFLDALDGALARATGKVSKFGGFLDSTIDRLSDASILFGIALGGLVRWDVTFLTLIGSYMVSYSRCRAELAGSGTLAIGIAERGERIIIIFIASLFNAVKIGVYLVAILSWITFIQRVYEAKKRLEMG | failed
14 | MLSLAYGMVALIGYSVSFDKTTFRLLRGESNLFYTLAKWENNKLHVELPENIDKQSPTMTLIYDENGQLLWAQRDVPWLMKMIQPDWLKSNGFHEIEADVNDTSLLLSGDHSIQQQLQEVREDDDDAEMTHSVAVNVYPATSRMPKLTIVVVDTIPVELKSSYMVWSWFIYVLSANLLLVIPLLWVAAWWSLRPIEALAKEVRELEEHNRELLNPATTRELTSLVRNLNRLLKSERERYDKYRTTLTDLTHSLKTPLAVLQSTLRSLRSEKMSVSDAEPVMLEQISRISQQIGYYLHRASMHGGTLLSRELHPVAPLLDNLTSALNKVYQRKGVNISLDISPEISFVGEQNDFVEVMGNVLDNACKYCLEFVEISARQTDEHLYIVVEDDGPGIPLSKREVIFDRGQRVDTLRPGQGVGLAVAREITKQYEGKIVAGESMLGGARMEVIFGRQHSTPKDE | failed
15 | MLSLKSEVLARHLPLFNGKSILLFGNVRDRFADQIRSISSHVAIFSHYFDYARHYNDVEFGLDCTTPANLGVFYWTKNKQECHYQLLQWLSQTAIGQQMLIIGENRAGVRSVEKLLSPFGQIAKIDSARRCGLYHFELQTIPQFDCQKFWKSYRLADLTVLSLPAAFSSTELDAGSQLLLSSFTNQDRLTGNVLDLGCGAGVIGAYLKQRFPAISLTMSDIHSMAIHSAQATLAKNKLTGTVIASDVFSHINDRFDLIVSNPPFHDDIDTAYHTVESLIMQAKNHLNYGGELRIVANAFLPYPDLLDKAFGSHQVVTKSNKFKVYSARV | failed
16 | MLSLPPCRLAARRYRPLRQQNRGSSAVILYNAPSFFDCRFDCLANHRQRRWPRAGHPDRDDVMHTLEQLRAGKLCGARHLKLAENLTEFPPEIFSLKETLEVLDLTGNQLSRLPDGLAEFSKLRIIFCSENRFTELPEVLGRCPALTMVGFKANKIVTVPAASLPAGLRWLILTDNAVEQLPDELGQCGALQKLMLSGNRLRELPVTLANCQRLELVRIAANRLEALPHWLVRLPRLAWLAYAGNPFSDKQEQRLGQCASVADIPWDSLKVGELLGQGASGVIHRAELATPAGPRAVAVKCFKGAVTSDGLPRCELAVSLAAGRHPHLVGVEGRVGDHPSGIPALVMALIDPDFINLAGPPSLDSCTRDIYQADARFTPAALLAMVQGVASAALHLHGRGILHGDLYAHNMLHSLQEEGRLLLGDFGAASCYERTDGELAGLLERLEVRAFGCLLEELLARCAPCDDRLDALHALVDDCLAEVVAARPDFAEIAARLAAVAPVICAEPVLL | failed
17 | MLSNGKCRNNKNQVNGSLSPKMFYMRINDQIVTKYHKILTKKIREVVGTLQQPWESRRIKQAPQQPQETTSATITCDRSHTNYDLCSINGSCNLDLKTGTLTLMDPTSAPLVEKIRPYPKKADNWIMPRIRELTLTSGPLGLPRSCDITHDLPAIVFSAGGYTGSIYHDLMDGFIPLFITANSVYPDRDFIPVVVNAKEWWMPKYIDILGTFSKHKPILLLDKESVATTHCFTSAIVGLITHWPMTIDPTQIPNSKSLVDFHNLLEKAFTTNISTPKTHKPRLMLVSRYGNIGRVILNEQEIKEMLEDVGFEVIIFRPSKTTNLKEAYKLIKSSHGMVGVHGAALTHLLFLRPGSIFVQVVPLGLGWASKPCYESPAKTMKLEYLEYKVNVEESSLIEKYNRDDLVLKDPIAYRGMDWNATKMKVYLKEQDVSLDVNRFRKHMNEAYKKAKIFMDING | failed
